Bounds are passed on as bounds.

Assay [1] deals with mCAT-1, murine cationic amino acid transporter (ecotropic receptor) (mouse (endogenous in C17.2 NSCs and NIH 3T3 fibroblasts; Mus dunni fibroblasts in the infectious center assay)) (UniProt Q09143).
Assay [2] has the same target. This is another data set of the same source.
For assay [3] the target is unchanged. The source holds these as a separate data set.

UniProt Q09143, sequence (Q09143 whole entry): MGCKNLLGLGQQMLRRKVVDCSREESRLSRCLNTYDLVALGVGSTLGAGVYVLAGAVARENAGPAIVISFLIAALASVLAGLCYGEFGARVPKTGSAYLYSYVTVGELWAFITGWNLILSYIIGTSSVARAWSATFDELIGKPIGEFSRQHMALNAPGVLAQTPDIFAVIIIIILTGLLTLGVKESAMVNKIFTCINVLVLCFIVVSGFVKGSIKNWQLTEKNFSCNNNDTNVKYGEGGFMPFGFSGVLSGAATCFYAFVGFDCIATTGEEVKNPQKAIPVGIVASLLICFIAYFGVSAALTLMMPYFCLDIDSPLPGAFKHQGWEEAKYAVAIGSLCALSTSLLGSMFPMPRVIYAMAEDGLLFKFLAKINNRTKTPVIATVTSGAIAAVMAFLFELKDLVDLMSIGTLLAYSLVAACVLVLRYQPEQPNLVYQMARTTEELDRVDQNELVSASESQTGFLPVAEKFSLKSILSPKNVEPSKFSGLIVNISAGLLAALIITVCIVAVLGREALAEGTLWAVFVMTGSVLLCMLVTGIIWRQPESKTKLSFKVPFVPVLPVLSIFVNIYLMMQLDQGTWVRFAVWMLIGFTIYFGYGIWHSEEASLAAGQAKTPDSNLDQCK

For the substance “CasBrE SU (surface subunit of the CasBrE Env, made from the CasES vector without the TM subunit) (domain or fragment)”, in assay [1], the infectious center assay: CasES+4070A-NSCs on DunniAm; infectious center efficiency (foci per 100 NSCs divided by plating efficiency) came out at 109% and the infectious center assay: CasES+4070A-NSCs seeded on 4070A-infected dunni fibroblasts (DunniAm); vector-positive foci per 100 NSCs seeded (foci per 100 NSCs seeded) is 18. Also, the virus titration: vector titre of CasES+4070A-NSC supernatant on 4070A-infected 3T3 cells (3T3Am, amphotropic receptor blocked) against naive 3T3 cells (orders of magnitude) in assay [2] is more than 3. In assay [3], the superinfection interference: reduction of the titre of the ecotropic virus Fr57E on CasES-NSCs (without 4070A) against control NSCs is 1 log and the superinfection interference: reduction of the titre of the ecotropic virus Fr57E on CasES-NSCs infected with 4070A was found to be 5 logs.

The record behind these values is paper PMC2998453.
